Test: soluble on expression in E. coli; label from the status in PepcDB or PDB records

Row | Sequence | soluble on expression in E. coli
1 | MKRLKNELNALVNRGVDRHLRLAVTGLSRSGKTAFITAMVNQLLNIHAGARLPLLSAVREERLLGVKRIPQRDFGIPRFTYDEGLAQLYGDPPAWPTPTRGVSEIRLALRYKSNDSLLRHFKDTSTLYLEIVDYPGEWLLDLPMLAQDYLSWSRQMTGLLNGQRGEWSAKWRMMCEGLDPLAPADENRLADIAAAWTDYLHHCKQQGLHFIQPGRFVLPGDMAGAPALQFFPWPDVDAWGESKLAQADKHTNAGMLRERFNYYCEKVVKGFYKNHFLRFDRQIVLVDCLQPLNSGPQAFNDMRLALTQLMQSFHYGQRTLFRRLFSPVIDKLLFAATKADHVTIDQHANMVSLLQQLIQDAWQNAAFEGISMDCLGLASVQATTSGIIDVNGEKIPALRGNRLSDGAPLTVYPGEVPARLPGQAFWDKQGFQFEAFRPQVMDVDKPLPHIRLDAALEFLIGDKLR | not soluble
2 | MSKKTLSTVNYQLSTDTMCLAIPGQVIEIREENGLKMGTVDISGALTKACLEYVPEIAIGQYTIVHAGFALKIIDEKEAAESLKLWDELIKSGAFDVDGELPPSPIQKPEA | not soluble
3 | MSLNISFIASNTLHELAAFLEKLNNIREHHVGFCGEKGSEIKATLERDFSDIGVSKSFIVGYDGMEIKGAVGLDVDTKEESAEVWGPFVDEDDPEMWLDTATILWQQLIDSLTVPVSTFQFFINQHNVNAKKFILKLNGMEKGDHDILTCDRTQFYPPLNHDVRLFTNNHTQSFKKLHDSLFPQTYYDAEEILKKINEPTNKLLIIEKEQIVIGYAYVEVEPEHGEGQIEYIGIAPDYRRQGLATQLLTNALHVLFSYPTVEDITLCVSKQNTKAIRLYQAAGFKKERQLTYFELNVDGLDNRRGRGEGHHHHHH | soluble
4 | MGSDKIHHHHHHACGNSDGAGEDPGVPYLAKKGEPVDGVRIGWDYGTIRQLATRGGYPRSIRLQDNTVVAVYENYDTGYEMRCSTDEGSTWGDPVILFPIHSITNDKGTARINIANSEIIQLANGDLLAACNYRPQTPEITPFAIAVRRSTDNGVTWSDPQIIYEAEPRFSDGCWEPSFLQLPNEEVQVYFANEGPYTHSNEQEISMMTSVDNGKTWGGYKTVCFRAGSRDGMPVSKVVGDEIVCVIEDCGFVTFKPYTVRTKLSDNWSSPVLADSPNRAMALGEPVEDWIYMGAPYLGVLPTGETLLSYQVDDIRHDDQLGDRLPYSTMEVAIGDKNARNFVRRTRPFPVPAGKHAVWPSVAVWDANTIAALATSNYQGGTEAPFFMKGHVMRDLEVNSSDIVNYPIFIGHTGICNLRLGVGKDADNLYITCKVKDGELYSGGQGTQKGSGVFIYLDTKNECLKEPAEGVYKVWCSYKGDITVWQGNKGKWENSELEGLQITPSVVSGGYELAFTIPLNRSFNKDAMRLCATLSTKTYTETLVHSNADRSCTWMKMNLGGH | not soluble
5 | FMQEPEAIETALHRLSDHDLIVIQVLDPTEKVLPLQGNSKLVDLETGEEIRTYISDNFKERYTRKLDDHSARIKKTCMKVGAEFYTFTTDTPVFNAFYNTIRRRRR | not soluble
6 | MSLRIKVCGIKRVEDAVMAAYCGADAIGLVVGRKHNSDDFIDKHLAQKIVRECPPYISPVLVTELDDAEEISGLVHETGVTSVQLHSDCTVDSIISLRKTFPNIKIIKNFHVIGPGVIHAMKPFESVVDAFILDTLDLANDKVGSTGLVHDWSISRKIVKEVSRPVILAGGLTPENVGEAIRVVNPYGVDASSGLKDSNGFKDEMKVINFVHRAKNDFFKVRNLSLENEGHHHHHH | soluble
7 | MSDASKRAAFDQYGHAGVDPSMGGGGAGFGGANFSDIFGDVFSDFFGGGGRGGGRGGAQRGSDLRYTLELNLEEAVRGTTVSIRVPTLVNCQPCDGSGAKKGSTPSTCPTCGGIGQVRMQQGFFSVQQTCPRCHGQGKIITDPCTSCHGEGRVEEYKTLSVKVPAGVDTGDRIRLSGEGEAGTHGGPTGDLYVVISVREHEIFQRDGKHLYCEVPISYTDAALGGELEVPTLDGRVKLKIPEGTQTGKQFRLRGKGVAPVRGGGAGDLLCRVAVETPVNLSRRQRELLEELRDSLEGDSSHSPKASGWFDGVKRFFGDLLEHHHHHH | not soluble
8 | MLMEPQFLRLVSHGANVLDPLSRIEPAAVGMMAGALQKGLAETFTPEAMQDPPRVGLAGFFKQLSDPEVQKALGVLFLFLKALGKAFGHMNEERKTLEAMMAKMMPKK | soluble
9 | MSTSEMLELNRTIDRLRRAVGSLRSMYGDAASVRRLSNDLERLEIDARELDSSPPNVVHREPVERIKVSDTPYDASMWLGIDDEGLGGLHYERG | not soluble
10 | MSLAKYKRVVLKLSGEALAGEQGYGIDPEVIQSIASQIKEIVELDVEVAVVVGGGNIWRGMAGSAKGMDRATADYMGMLATVMNSLALQDSLENLDVQSRVQTSIEMRQVAEPYIRRRAIRHLEKKRVVIFAAGTGNPYFSTDTTAALRAAEIEAEVILMAKNKVDGVYNAEPSVDVNAKKYTSISYLDVLKEGLAVMDSTASSLCMDNNIPLIVFSIMEEGNIKKAVLGEEIGTVVRGSNEGHHHHHH | soluble
11 | MGSDKIHHHHHHMRDNMSRLEDLEAFIHIAESGSLTRAATRLNRSLQAVSRSLTSLEVDVGLQLVHRTTRHSALSEAGQAFYRRVKPAVLEIREAQLEAAGRRTGPSGILRVGAPMLFGPDFLVPIVAEYIESYPQAEVDLSLTDAFVDLASKGIDVVVRIADLPDSNLQSKRLGALRRVVFGAPSYFARNGRPEHPAELRQHACIVRTIGNRPGQWAFQIDGKRRMVGVRGSFRSNAMAAIYSAVRSGLGLGYSPLWQIRHLVDAGQVEIVLQEFEPKPVPIHALWQESTRPPAKVRAFVDLLAMRLRLDDL | not soluble
12 | MLEDLRLYQLISPSLPVGSFTYSQGLEWAIEKGWVTNVTELKHWLSNQLMDSLATLELPVLAKLTQLLQQEEWQQAQDWCDFIIANRETKELRLEERQRGLAFSMLLPKLGIELNQTTLPMVKQTQVAAFALAANHWNLTPTKLAAAYAWGWLENAVIVGIKLVPLGQSAGQQLLLEMADVIPQAVEKSQHWPEHLIGSFTPAQVLASSRHESQYTRLFRSLEHHHHHH | soluble
13 | MSLTIRDIAAKAGVSVSTASRALNNNPRISQATRERIQALAEAEGYLPNYNAKNLTAGESNAVGVVFATADRSQPENPFFIDILRGINAQLVQRDYVLSVAISKTADELLKNVKAMVAQGKIKRFVLLYAHQDDPIAAFLRQHHLRFVTIGQPDDNANDYFVDNDNLEAGIGGATFLLNQLQVKHPVFVESTHDWAYEQQRRQGYERVAATFNVEPLTCRLGELNRVRAFIKRHPEIDGIMATDDFNGIEFYRLMREQYGINHFPMVSFNQSLPNGLTDADLHSVNLFPEKMGSATVALLFSDKEPLETPTPGQIKIPFEIKEGHHHHHH | soluble
14 | MGSDKIHHHHHHMSEESIIVVGGGIAGLTGAALLSKEGYQVTLVEAHSQLGGCAGTFKRGSYTFDVGATQVAGLERGGIHHRLFNYLDIPLPDAKILDPGCSVTLGDGSRPINLWHDPLRWQKERQEQFPGSEIFWSLCSKIHESNWEFVERDPILPVRNFWDLSQLIRAIRPSNLLTGFLSKLTIADLLTITGCHKDRRLRSFLDLQLKLYSQEPASRTAALYGATVLQMAQSPRGLWHLHGSMQILSDLLKDSFLRDGGSLLIGHRVTKIIRKENSNVFDVKVLDRRKNLLQMKASDIVFSLPPQSLLDLIPIDGGLSTTYRESIKKLPKPSGAVVFYGALRRVDLPVDCPGHIQVFDEHFGSLFISISLENDQRAPIGMATLIASVFVDIDQWSNLDSQAYTRKKSVVSKQIRAILDHKFDLLETSWDHQELSTPRSFERWTGRPSGIVGGLGQHPDQFGPFGLSSRTPLKGLWLCGDSIYPGEGTAGVSQSALMVVRQLLESKGRHLNIPVFN | not soluble
15 | MATSNLLKNKGSLQFEDKWDFMHPIVLKLLRQESVTKQQWFDLFSDVHAVCLWDDKGSSKIHQALKEDILEFIKQAQARVLSHQDDTALLKAYIVEWRKFFTQCDILPKPFCQLEVTLLGKQSSNKKSNMEDSIVRKLMLDTWNESIFSNIKNRLQDSAMKLVHAERLGEAFDSQLVIGVRESYVNLCSNPEDKLQIYRDNFEKAYLDSTERFYRTQAPSYLQQNGVQNYMKYADAKLKEEEKRALRYLETRRECNSVEALMECCVNALVTSFKETILAECQGMIKRNETEKLHLMFSLMDKVPNGIEPMLKDLEEHIISAGLADMVAAAETITTDSEKYREQLDTLFNRFSKLVKEAFQDDPRFLTARDKAYKAVVNDATIFKAENLYFQ | soluble
16 | MSLKILITGSNGLLGQKLVSLLYLKPEITLIATARGANRDEIYEDYIYESMDITSEENVLKVFRKHKPDAVIHTAAMTHVDQCELNKEACVDQNITSVKHIVKACKEVGAFLLHVSTDFIFDGTRGPLTEEEIPNPVNYYGWTKWEAEKAVENSGLKWAIARTVLVFGVVQDMSRSNIVLWVKNNLEQKKEINVVNDQWRTPTLAEDLAMGCWLIVKNQAEGIFNISGEEMLSPYELAHKVADVWKLDKGLIKQADSSTFTQPALRPPKTGFIIDKAKKQLGYKPHTLEEGLDLLKEQLTEGHHHHHH | soluble
17 | QINPAARKELVIENDIETMHPVFKGFKDKLVPHLRMAAQGATLTGVNVPIGDKVFRWNLSPIRVDGDISGIIVQGQDITTLIEAEKQSNLARREAEKSAQARADFLAKMSHEIRTPINGILGVAQLLKDSVEAEEQKNQIDVLRHSGEHLLAVLNDILDFSKIEQGKFNIQKHPFSFADTMRTLENIYRPICENKGVELVIENQLDGNVEIFTDQVRLNQILFNLVSNAVKFTPSGCVRLHAELEQFYGADNSVLVVEISDTGIGIESDKLDEMFEPFVQEEATTTR | not soluble
18 | MTLQQEIIQALGAKPHINPEEEIRRSVDFLKAYLKTYPFLKSLVLGISGGQDSTLAGKLSQMAIAELREETGDNALQFIAVRLPYGVQADEQDCQDAIAFIQPDRVLTVNIKGAVLASEQALREAGIELSDFVRGNEKARERMKAQYSIAGMTHGVVVGTDHAAEAITGFFTKYGDGGTDINPLHRLNKRQGKQLLAALGCPEHLYKKVPTADLEDDRPSLPDEAALGVTYDNIDDYLEGKTLDPAIAKTIEGWYVKTEHKRRLPITVFDDFWKR | soluble
19 | MGSDKIHHHHHHMELVQFGCEDWLNVWEKSATIDIAQSTIDSLSLEEVLAFEEDNGEAFMSQMMKEKFSYGWIEGSPAFKSEVAKLYKRVPEDNILSTNGATGANFLTILGLIGQGDHVIAQYPSYQQLYDWPKTLGAQVDYWHIKEENNWLPQIEELRRLVKSNTKLICLNNAAQPTGAIMSPKFLSEVVEIARSVDAYILCDEVYLPLDEETPYSPIADLYEKGISTNSISKTYSVPGIRVGWVATQDRDLCNEFRKIRDYTLICTGVFDDAVAALVLKHKDKVLERARKIVKGNLSILKEWVENEPLVSMVYPNAVSVSFVKFEELDPTKTEDFAIQLLREKGVLIIPGNRFDLSGYARIGYCTDETTLRQGLKLLSEFLREYQV | not soluble
20 | MDKQIGFIGCGNMGMAMIGGMINKNIVSSNQIICSDLNTANLKNASEKYGLTTTTDNNEVAKNADILILSIKPDLYASIINEIKEIIKNDAIIVTIAAGKSIESTENAFNKKVKVVRVMPNTPALVGEGMSALCPNEMVTEKDLEDVLNIFNSFGQTEIVSEKLMDVVTSVSGSSPAYVYMIIEAMADAAVLDGMPRNQAYKFAAQAVLGSAKMVLETGIHPGELKDMVCSPGGTTIEAVATLEEKGLRTAIISAMQRCTQKSVELSGQTKKLEHHHHHH | soluble
21 | QKFIARNRAPRVQIEYDVELYGAEKKVQLPFVMGVMADLAGKPAEPQAAVADRKFLEIDVDNFDARLKAMKPRVAFNVPNVLTGEGNLSLDITFESMDDFSPAAVARKVDSLNKLLEARTQLANLLTYMDGKTGAEEMIMKAIKDPALLQALASAPKPK | not soluble
